# Assay: protease stability score; higher = more stable; yeast display proteolysis, trypsin and chymotrypsin;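 note: relative to predicted unfolded state with 0 unfolded-like and 1 meaning tenfold more protease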
row,Sequence,protease stability score
1,SEDEKLAEDFFELLRHLIHTGDENTLREFADPRTRVQINGREIHGWDESARHIMHETLRFKNMRINLHLKDRRVIGEKMELDVKVQLHFNGQTEEFDFILYVEKVNGKWVIKSIHVH,1.26
2,SEDEKLAHLVTELMTHSDRTGDERILEHLLDPNTRVIINGVSYHGMEAYRHMVRHIRFHNWEIHDVDSVNGQVHVDSRAEGNIDGVRDILNTWIISDKYDGRWIISEIEII,0.53
3,SEDEKLDRDLHDLFRKLWETGDFDSLLKLADPTARFIYDFENHSEEEHGMHVYLKRLTERLRFFKGLQIEVDVIHVVNGVSHFELTMHIDGVRIKVEIEVITIDGRVREMRVRDN,0.738
4,SEDEKLFRLSIEIYLRVSRTGDEHMAHEYADPHVRLRIGDKEFHGREEFIKWVNELRVEELRLKEVRVIGDKAHLRTEVHTYIGDKEINYEMEIHQTKIDGKWFLREMKLK,0.486
5,SEDEKLMEHAFRQLLRDLETGDWHSFHHLADPTVKLDIDGREIHGRESATRVLEELWRKFGVTRVESELHSMHSQGDKLRVESKMNFNGVEYSVIIIMIKIDGRWLLHSENHK,1.56
6,SEDEKLVHHAANLILEALWTGDEDTLREMVDPNVRTHINGREFHGWEESIRIILHHLNRFKNVRWHLHDQRVYGEKSHNDVRTNVDGVTLEVILILIVVDGRIRSISIEIR,2.68
7,SEDEKMAERVLRLLYEDILTGDEHALKRLLDPDARLSQGDKQHHGREVLLEWMRTVWERVDHMEFELKDFRFYGNYIIIHGTLTERINGRKLEFEVILYVYKINGKWFLHSIEIR,1.85
8,SEDEKMANEMLEIMMRNLITGNWEELSRLADPHVRIVINGVELHGRETINNYLHHLRIKRVHLNVTHIESIDGKVKSIGLLREHGEFNGKETETHTKVILIIQKVNGVWIVKEIRDE,1.4
9,SEDEKMFKEMKDLLLEILRTGDEDSWSHLADPDYRMDINGRIDHGMEEASRSLTEFLRKLGIDHLDIKDSKVTLVNGRAIIILHEETKVNGRKFNLRIINIVSKVNGKWSIESFSMSIE,1.29
10,SEDEKMIEDASELHIDYFLTGDEESMEKLADPSVKLEQGDKDQHGREQHSKWYKELREELGIKHMRVDDVKFRLINGRLTLLIRGTLHVGDKSWDVHFILISEKIDGKWVIRNMIISYS,1.32
11,SEDEKMTEMALRLFMHTWRTGDEQVFRHLADPDYRLEVNGVEFIGWEQVTELFSRIVKRFDHMHIHLREFDDINGQADVRGTLILIQGDKEIRMETHIISKKFNGRWTHRRVHFH,0.428
12,SEDEKNHKIAMRILRRVIETGDERELEELADPDVRIVIGDKFHVGRDVWHEWAHRFDHTHHIEVKDHRHFDGRITLDTEVDVHIDGRRSRMRVIIIARKVDGVWFLHELRIH,1.31
13,SEDEKNSRKFLEDWIRALETGDEHRLEELLDPHVLVIVDGVHYWGMEIFLKERRRHGFKLKDVRLEHMTIQGDKVILHVQIEVHINGRDHHLESYIIIEKVNGRWHVSKLELR,2.71
14,SEDEKNVDEFMERMTRLTETGDEDNLRHLMDPNVYLHQGDKVHHGREDVVKAIREIIDNLGVTQVKAEVHSFEVIGDKMDLRGTLEFNGVRWRRHIDIHKVDGRWHLQFVHIE,0.251
15,SEDEKNVEEMSRRLSHVLKTGDEESFSRLADPNARHIYNGRILHGWENFVRFLRHLWEHARIHELHVHDFEYQGDFMHVDSRLNGDINGQQMIFTTHLYNIKINGRWFLTEVKIV,0.429
16,SEDEKQFNEFLKLFNHSLQTGDEDTLTDLMDPTVRSDINGREFHGREEMSRALNILIKLAGVDHTSIDLKRLEVVGDKAHSDVSLLLIQGDKIRTHEMKLDMYKIDGKWILTHLRFK,1.66
17,SEDEKQLEHAVKLFIESLRTGDEHSLENLVDPNVRMQINGVELHGRELFIHLFREWRFHSVHLRHLDLQGDKVHLDGKLDVRFDGRRYEVILRTHIEKIDGRWHLRYMYEE,1.45
18,SEDEKRAKEFDERFNENLLTGNFEKLLHLADPNAKVFYNGQENHGMHLFLKWMVELLKQIRVEDVELDDYKIYGEKIVLDVTIHTRFDGQETEWKTRIITTKVDGRWVLKTVEIR,1.45

row,Sequence,protease stability score
1,SEDEKRLLDLAKEWIHNWLTGDEESMQKLADPSTRYEIGDKELHGMEEVNRSIKISLDELRVKHIDIERVKAINGVVTIHTRIDVEFNGKRMIIETIIRIDIFNGRIKQVWVEFR,1.21
2,SEDEKSIKVAIELIINSVRTGDERFIKELADPHVRLEIGNKRVHGREEFAKLLSEENRQMRIHIIIDDVKSVGDFVFIRGTIEIHIDGVEERREFEIFVWKFNGRWVIKEERIH,1.43
3,SEDEKTTKDVFREIKEILLTGDWRALERLLDPHVRFDINGQEIHGRESILEYWLEQVRRLGIDHIEIRLHHIDVQGDKIHLDVRIIYRYGDKEYREETKFVIIKIDGKWHLKEYHVD,2.11
4,SEDEKTWHKLMEDHIKDWITGNEEKLEENADPHARFELHVGDKRITDHGRDFIEHWVDRIKNLRIELHDFEIQGNKVHLDVRVNVNGVHEIVTIIVIVIDGKLHSLHIHVEIR,-0.08
5,SEDEKVALEMLEWLSTARRTGDEHVMRELIDPHTRLHYGDKIYIGRDHVIELLLQLRVHIHHVELTHFESVGDKIKLHTEEDGHIDIDGRHHRVIIHTTMYARKFDGQWHTEEIRIH,1.93
6,SEDEKVVFQILRLWVDLLLTGDEEEMLHLADPNTRVEIGEFDDHGREAMEFMIRRFDVIEDIKIRDIRTIDGKVQIHGEVHSHFNGRRFTIHVEIIARKIDGRWKLTSMHFI,2.08
7,SEDEKVVKWASDVLLDYIRTGDWRSLEELIDPHARHDVNGVEIIGMEHILKHFMELRRRIDHIHLRVHHIRVFDGQIDLNGKLHVNINGREIELDTRVIALKVNGRWVNHIISIG,1.44
8,SEDEKVYLKLVEDWIRIWRTGDEDMAEKLADPNVKIIIGDKSTHGREEWTRVVRELRTTEFDAHSITVVDGVVELDGRSRGDINGVEMNSHFTFILYIVDGRLKSQEIEVH,2.03
9,SEDEKWIRHAIRLLSEALETGDESMEHHLMDPNVKIRIDGVQYIGWEHWKKFVDRFDHEKIEHVHIRHIEVFNGRVDLDGFVHIILFVDGQEIRETRRTRIIVLKYNGKWLIESIEIE,2.3
10,SEDENILRRVVNILLHVWMTGDEDSLKELIDPHARMDFDGQEVHGREEITRLIRTILHELGIKHFELHRHHIDVQGDKAHIEVDGVDDVDGRKVKVIIRMHVLKVNGRWKTRIVYFERQ,1.65
11,SEDENLIEEFLRRLMKWHNTGNFDEILNMVDPNTRIIVGDKFHHGRDALRYMWEFLGVDHVRIHVKRQEIIGDKVHNDTELEVNVNGKNLRIKEKLVVIKVNGVWILERIEIQ,1.48
12,SEDENLIKHVKELLTHRAHTGDERELERLVDPNVKIIVGDKFQIGRELMLETWHRWLEEAGVDQIRLTLHHERIQGDYIILEVTYDVNGREIELTIIHIKVNGKWRLHSMKVR,0.529
13,SEDEQDAHKWLQLFIDFLKTGDEELMEKFLDPTVRSRVGDKETHGREMLVLHLLFLGVDHIHFRHVEERVYNGRVLLIITILIRVGDKHVETEIRVEIDKINGRWLAETIHIRIR,0.778
14,SEDEQESRDIIKLLDKSIETGDEKTATRLADPHMRLDIDGVDLHGREEFVRWVIFVVREMRSRVEHTRVRMYDGRAEVDTTLLFIFEGRELRVESHIIMLKIDGRWIIHEVRIH,1.26
15,SEDEQHLRRMLKVWDTAVKTGDEHLLDRLADPDVRIDINGVELHGREELERMLKQMRIEFEDSDLNHVHIQGDKIHADTEVVVIIIINGREERRRLRIESIVWKVNGRWHFKEFRFK,1.4
16,SEDEQLAREAIERLLQDFSTGNFERLMEMVDPNVRWEVGDFVSHGRENWSEHFRTYLEKMGFKHVNVRLKHIEVIGNKVIVHSEIIINVDGQELRMQSSSHVVKINGRWVLRSESHL,2.06
17,SEDEQLRYELAELFFHLISTGDEETIRHYFDPHVLVMIFVNGRNIENHGWEEMTRSLRELRIKDSRLKRVDVYGDYARMDIRVDGEINGVRRDTEVEIRIKWVNGRWKSVNIHIH,2.14
18,SEDEQQALEIIRQWVEFVRTGDEDSVRRLLDPNVRYEVNGREFHGRELVVRILWEIVYHLGVKHVDNKVEHMEIQGEFVKVETTMILRYNGRTLYIDTRIIIFKIDGRWVFRSIEEK,1.63
